{"source": "patent US20230405133A1", "about": "“PURIFIED MULTIVALENT PROTEIN-HYALURONIC ACID POLYMER CONJUGATES” (Valitor, Inc., priority 2022, published 2023)", "molecules": {"B1": {"name": "Conjugate 16 (anti-VEGF VHH SEQ ID NO: 91 with aH linker SEQ ID NO: 21 on hyaluronic acid, intermediate 2-6) (VHH)", "VHH": "DVQLVESGGGLVQPGGSLRLSCAASGRTFSSYSMGWFRQAPGKEREFVVAISKGGYKYDAVSLEGRFTISRDNAKNTVYLQINSLRPEDTAVYYCASSRAYGSSRLRLADTYEYWGQGTLVTVSS", "modifications": "C-terminal Cys of the peptide linker bound by its thiol to the maleimide of the organic linker MP2H on hyaluronic acid (830 kDa)", "notes": "Multivalent peptide-hyaluronic acid conjugate (MVP); peptide valency 101; Method 2 intermediate; also called BI VHH anti-VEGF MVP"}, "B2": {"name": "aTNFaMu_3MUT: anti-TNFα single domain antibody (mouse), aTNFaMu with three point mutations, SEQ ID NO: 72 (protein)", "VHH": "QVQLQESGGGLVQAGGSLRLSCAASGGTFSSIIMAWFRQAPGKEREFVGAVSWSGGTTVYADSVKGRFTISRDSARKSVYLQMNSLKPEDTAVYYCAARPYQKYNWASASYNVWGQGTQVTVSS", "modifications": "aTNF-a mu 3MUT"}, "B3": {"name": "Conjugate 1: HA conjugate of anti-VEGF DARPin peptide SEQ ID NO: 92, made from Method 5 intermediate 5-4 (MP2H) (conjugate)", "chain": "GSDLDKKLLEAARAGQDDEVRILMANGADVNARDSTGWTPLHLAAPWGHPEIVEVLLKNGADVNAADFQGWTPLHLAAAVGHLEIVEVLLKYGADVNAQDKFGKTAFDISIDNGNEDLAEILQKAAGGGSGGGS", "modifications": "hyaluronic acid conjugate; anti-VEGF DARPIN"}}, "key": {"[1]": {"molecular_target": "T1, Human VEGF 165 (human, UniProt P15692-4 27-191)", "T1 construct": "Loaded on the BLI probe as the ligand; also called BLI ligand Human VEGF 165 (Avi tag, R&D Systems AVI-293-050); not shown: Avi tag", "assay": "BLI, VEGF 165 on probe, conjugate as analyte, t = 0; value is the limit of detection"}, "[2]": {"molecular_target": "T1, Human VEGF 165", "assay": "BLI; KD after 4 days at 37 °C against KD at t = 0"}, "[3]": {"molecular_target": "T1, Human VEGF 165", "assay": "BLI, VEGF 165 on probe, t = 0 (repeats Table 15); limit of detection"}, "[4]": {"molecular_target": "T1, Human VEGF 165", "assay": "BLI, VEGF 165 on probe; sample aged 4 days at 37 °C"}, "[5]": {"molecular_target": "T1, Human VEGF 165", "assay": "BLI, VEGF 165 on probe; sample aged 11 days at 37 °C"}, "[6]": {"molecular_target": "T1, Human VEGF 165", "assay": "BLI; KD after 11 days at 37 °C against KD at t = 0"}, "[7]": {"type": "physicochemical", "protocol": "25× volumes of lysis buffer 25 mM HEPES, 20 mM imidazole, 400 mM sodium chloride, 0.5 mM EDTA, 5% glycerol, 0.01% Tween 20, pH 7.5 were added to E. coli pellets harvested from 25 mL TB culture, and sonicated 5× on ice at 40% output using a probe sonicator. Once lysed, whole cell extracts were clarified at 10K*g and 100 uL of supernatant were aliquoted and subjected to incubations at 50° C., 60° C., 70° C., and 80° C. for 15 minutes, followed by a ten-minute incubation on ice. Thermally precipitated proteins were removed at 10K*g for five minutes, and soluble extract fractions were combined directly with Laemmli sample buffer, denatured, and run on 4-20% SDS-PAGE to evaluate yield and stability."}, "[8]": {"molecular_target": "T2, Human VEGF 165 (Homo sapiens, UniProt P15692)", "T2 construct": "Avi; purchased R&D Systems AVI-293-050", "T2 sequence (P15692 27-191 isoform P15692-4)": "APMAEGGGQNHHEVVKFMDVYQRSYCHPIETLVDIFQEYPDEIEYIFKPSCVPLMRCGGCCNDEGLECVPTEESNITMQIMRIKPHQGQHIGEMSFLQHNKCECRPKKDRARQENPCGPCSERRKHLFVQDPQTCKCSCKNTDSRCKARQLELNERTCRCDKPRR", "assay": "Accelerated 37° C. stability study, VEGF binding by BLI over time", "conditions": "DARPin MVPs, aging 28 and 32 days at 37° C., compared with Conjugate 2", "protocol": "MVP stability was assessed by setting up a long term accelerated […] stability by maintaining the MVPs at 37° C. at 5-10X the therapeutic concentration in pH 7.3 vitreous mimetic buffer (Table 19) or pH 7.4 PBS 0.01% tween 20. MVP stability was assessed using SEC MALS or SEC, DLS, and/or BLI analysis of samples removed after various times.\nLong-term 37° C. stability studies were set up to assess composition impact on MVP stability. MVPs were synthesized under sterile conditions and diluted to around 0.4 mg/mL in a sterile filtered human vitreous mimetic buffer. This concentration is 5X higher than intravitreal therapeutic concentration of our predicted clinical dose. […] At discrete timepoints, one aliquot from each sample was removed from the plate under sterile conditions and analyzed. […] Then, the protein concentration is measured to adjust for any differences in volume that may have occurred. The binding affinity to is measured using BLI. […] To monitor changes in radius over time, the samples are spun for 5 minutes at 5000 g to remove any large aggregates or dust particles and the Rh is measured using DLS without any sample dilution.\nThe change in binding affinity over time using biolayer interferometry (BLI) was also determined. […] Analytes were prepared at the top concentration determined in pilot reactions in BLI buffer and serially diluted 1:3 two to five more times using BLI buffer. […]"}, "[9]": {"assay": "SEC analysis of MVP stability samples aged at 37° C.", "type": "physicochemical", "conditions": "anti-VEGF DARPin MVPs stored up to 71 days at 37° C., compared with Conjugate 2", "protocol": "Stability study samples were analyzed using HPLC size exclusion chromatography (SEC). This method was also used to analyze MVP formation and percent unreacted protein after purification. To assess stability via SEC, MVP was filtered to remove particles and analyzed using a Shodex 1 MDa Ohpak LB-804, Shodex KW-404 or 405, or Phenomenex PolySep6000 column with DPBS or appropriate solvent as the mobile phase to get baseline trace at 280 nm, 230 nm, etc. After various time points samples were removed and analyzed using the same SEC method. Increases in retention time and peak width relative to the baseline sample indicated degradation. In addition, decreases in MVP peak area and/or increases in monomer and dimer protein species peak area also indicate MVP degradation. Percent conjugate loss was quantified by comparing peak area differences with time. In the future, the SEC stability analysis will be coupled with MALS to quantify molecular weight and valency changes of the conjugate with age at different temperatures. […]\nStability study samples were also analyzed by coupling SEC with MALS analysis for determination of MVP radius of gyration (Rg,z) and molecular weight at different time points after aging at 37° C. […] System-specific calibration numbers, normalization coefficients, delay volumes, and band broadening terms were determined for the system prior to analysis. […]"}}, "note": "“Also recorded” adds a separate entry of the source.", "data": [{"molecule": "B1", "values": [{"measurement": "Kd", "setting": "[1]", "value": "< 0.001", "unit": "nM"}, {"measurement": "Change in KD to t = 0", "setting": "[2]", "value": 654, "unit": "fold"}, {"measurement": "Kd", "setting": "[3]", "value": "< 0.001", "unit": "nM"}, {"measurement": "Kd", "setting": "[4]", "value": 0.654, "unit": "nM"}, {"measurement": "Kd", "setting": "[5]", "value": 0.648, "unit": "nM"}, {"measurement": "Change in KD to t = 0", "setting": "[6]", "value": 648, "unit": "fold"}]}, {"molecule": "B2", "values": [{"measurement": "thermal stability of the protein in E. coli cell extracts", "setting": "[7]", "value": "about 70 °C"}]}, {"molecule": "B3", "values": [{"measurement": "association constant (Kon) initially and with aging", "setting": "[8]", "value": "lower Kon and slower association initially and with aging"}, {"measurement": "SEC retention time / radius change with aging", "setting": "[9]", "value": "much larger increase in retention time and contraction of radius; also recorded: larger losses in radius with aging"}]}]}
